Tests used:
[1] = target: recombinant human OX40 fused to a His-tag (Acro Biosystems, cat. no. OX0-H5224) (human) (UniProt P43489); test: BLI cross-block; first Ab (competitor): IgG1-CD134-MEDI0562
[2] = target: recombinant human OX40 fused to a His-tag (Acro Biosystems, cat. no. OX0-H5224) (human) (UniProt P43489); test: BLI cross-block; first Ab (competitor): IgG1-CD134-007
[3] = target: recombinant human OX40 fused to a His-tag (Acro Biosystems, cat. no. OX0-H5224) (human) (UniProt P43489); test: BLI cross-block; first Ab (competitor): IgG1-CD134-ABBV368
[4] = target: recombinant human OX40 fused to a His-tag (Acro Biosystems, cat. no. OX0-H5224) (human) (UniProt P43489); test: BLI cross-block; first Ab (competitor): IgG1-CD134-003
[5] = target: recombinant human OX40 fused to a His-tag (Acro Biosystems, cat. no. OX0-H5224) (human) (UniProt P43489); test: BLI cross-block; first Ab (competitor): IgG1-CD134-012
[6] = target: recombinant human OX40 fused to a His-tag (Acro Biosystems, cat. no. OX0-H5224) (human) (UniProt P43489); test: BLI cross-block; first Ab (competitor): IgG1-CD134-11D4
[7] = target: recombinant human OX40 fused to a His-tag (Acro Biosystems, cat. no. OX0-H5224) (human) (UniProt P43489); test: BLI cross-block; first Ab (competitor): IgG1-CD134-49B4-RRE
[8] = target: human OX40 with mouse CRD1 (human with mouse CRD1) (UniProt P43489); test: flow cytometry, transfected ExpiCHO-S cells, gMFI (PE)
[9] = target: recombinant human OX40 fused to a His-tag (Acro Biosystems, cat. no. OX0-H5224) (human) (UniProt P43489); test: BLI cross-block; first Ab (competitor): IgG1-CD134-RG7888
[10] = target: recombinant human OX40 fused to a His-tag (Acro Biosystems, cat. no. OX0-H5224) (human) (UniProt P43489); test: BLI cross-block; first Ab (competitor): IgG1-CD134-INCAGN1949
[11] = target: recombinant human OX40 fused to a His-tag (Acro Biosystems, cat. no. OX0-H5224) (human) (UniProt P43489); test: BLI cross-block; first Ab (competitor): IgG1-CD134-IBI101
[12] = target: recombinant human OX40 fused to a His-tag (Acro Biosystems, cat. no. OX0-H5224) (human) (UniProt P43489); test: BLI cross-block; first Ab (competitor): IgG1-CD134-SF2
[13] = target: recombinant human OX40 fused to a His-tag (Acro Biosystems, cat. no. OX0-H5224) (human) (UniProt P43489); test: BLI cross-block; first Ab (competitor): IgG1-CD134-003-HC6LC2-RR
[14] = target: recombinant human OX40 fused to a His-tag (Acro Biosystems, cat. no. OX0-H5224) (human) (UniProt P43489); test: BLI cross-block; first Ab (competitor): IgG1-CD134-Hu106
[15] = target: recombinant human OX40 fused to a His-tag (Acro Biosystems, cat. no. OX0-H5224) (human) (UniProt P43489); test: BLI cross-block; first Ab (competitor): IgG1-CD134-GBR830
[16] = target: recombinant human OX40 fused to a His-tag (Acro Biosystems, cat. no. OX0-H5224) (human) (UniProt P43489); test: BLI cross-block; first Ab (competitor): IgG1-CD134-A4453
[17] = target: recombinant human OX40 fused to a His-tag (Acro Biosystems, cat. no. OX0-H5224) (human) (UniProt P43489); test: BLI cross-block; first Ab (competitor): IgG1-CD134-h3C8

Chain of IgG1-CD134-IBI101 (antibody) (VH): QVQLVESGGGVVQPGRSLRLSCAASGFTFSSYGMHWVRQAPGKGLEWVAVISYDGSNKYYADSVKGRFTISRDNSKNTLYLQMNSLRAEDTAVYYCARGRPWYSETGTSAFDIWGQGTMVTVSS
Chain of IgG1-CD134-IBI101 (antibody) (VL): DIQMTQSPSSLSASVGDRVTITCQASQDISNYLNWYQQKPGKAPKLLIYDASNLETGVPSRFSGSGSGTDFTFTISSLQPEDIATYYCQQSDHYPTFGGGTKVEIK
Chain of recombinant human OX40 fused to a His-tag (Acro Biosystems, cat. no. OX0-H5224) (human) (P43489 29-214 limits assumed): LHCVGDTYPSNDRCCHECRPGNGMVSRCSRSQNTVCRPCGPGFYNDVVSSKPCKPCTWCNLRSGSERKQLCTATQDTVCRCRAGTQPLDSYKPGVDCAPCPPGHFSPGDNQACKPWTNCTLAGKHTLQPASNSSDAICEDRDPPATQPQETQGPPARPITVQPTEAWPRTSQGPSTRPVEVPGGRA
Chain of human OX40 with mouse CRD1 (human with mouse CRD1) (P43489 other isoform, or with tags, fused parts or gaps limits assumed): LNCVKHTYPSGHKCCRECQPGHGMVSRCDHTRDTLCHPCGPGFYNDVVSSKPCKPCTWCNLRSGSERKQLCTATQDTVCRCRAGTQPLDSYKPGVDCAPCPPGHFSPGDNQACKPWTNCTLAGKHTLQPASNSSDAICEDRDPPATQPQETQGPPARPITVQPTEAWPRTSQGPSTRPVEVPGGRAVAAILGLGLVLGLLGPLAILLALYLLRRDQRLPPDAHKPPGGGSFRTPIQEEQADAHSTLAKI

| association response [1] [nm] | association response [2] [nm] | association response [3] [nm] | association response [4] [nm] | association response [5] [nm] | association response [6] [nm] | association response [7] [nm] | EC50 (read off the curve) [8] [µg/mL] | association response [9] [nm] | association response [10] [nm] | association response [11] [nm] | association response [12] [nm] | association response [13] [nm] | association response [14] [nm] | association response [15] [nm] | association response [16] [nm] | association response [17] [nm] | Substance |
| --- | --- | --- | --- | --- | --- | --- | --- | --- | --- | --- | --- | --- | --- | --- | --- | --- | --- |
| 0.26 | 0.02 | -0.02 | 0.74 | 0.82 | 0.15 | 0 | 0.07 | 0.31 | 0.02 | 0.01 | 0.07 | 1.23 | -0.02 | 0.01 | 0.24 | -0.03 | IgG1-CD134-IBI101 (antibody) |
| 0.01 | 0.55 | -0.03 | 1.39 | 0.73 | 0.11 | 0 | 0.09 | 0.01 | 0 | 0.01 | 0.02 | 1.74 | -0.01 | 0.01 | 0.25 | -0.02 | IgG1-CD134-INCAGN1949 (antibody) |
